# Measurements as given in the RNAGym collection of RNA variant scans (doi:10.1073/pnas.2313332121).
# B1: TPR t1 (parent)
# chain: GACCAAUCUGCCCUCAGAGCUCGAGAACAUCUUCGGAUGCAGAGGAGGCAGGCUUCGGUGGCGCGAUAGCGCCAACGUCCUCAACCUCCAAUGCAUCCCACCACAUGAUGAUGCCUGAAGAGCCUUGGUUUUUUG
# Variants of: B1
# Assay: polymerase ribozyme fitness, log enrichment relative to wild type (log ratio); higher = more active; in vitro selection for triplet polymerase activity
# How it was run: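 After PCR construction and transcription, each subunit's mutant library from a heterodimeric triplet polymerase ribozyme was annealed with a biotinylated primer, the partner subunit and triplets. Incubation was frozen, at −7 °C, and extended constructs were gel-excised, bound to streptavidin beads and amplified by RT-PCR, in one selection round done in triplicate. Fitness is the logarithm of a genotype's enrichment divided by that of the wild type, from inverse-variance-weighted replicate averages of Illumina-sequenced inputs and outputs. The base of the logarithm is 2, and genotypes needed ≥10 input reads and ≥1 read per output.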
row,Variant,polymerase ribozyme fitness (log ratio)
1,GACCUAUUUGCCCUCAGAGCUCGAGAACAUCUUCGGAUGUAGAGGAGGCAGGCUUCGGUGGCGCGAUAGCGCCAACGUCCUCAACCUCCAAUGCAUCCCACCACAUGAUGAUGCCUGAAGAGACUUGGUUUUUUG [A5U C8U C40U C123A],1.55
2,GACCUAUUUGUCCUCAGAGCUCGAGAACAUCUUCGGAUGCAGAGGAGGCAGGCUUCGGUGACGCGAUAGCGCCAACGUCCUCAACCUCCAAUGCAUCCCACCACAUGAUGAUACCUGAAGAGCGUUGGUUUUUUG [A5U C8U C11U G61A G113A C124G],-0.703
3,GACCUAUCUGCUCUCAGAGCUCGAGAACAUCUUCGGAUGCAGAGGAGGCAGGCUUCGGUGGCGCGAUAGCUCCAACGUCCUCAACCUCCAAUGCAUCCCACCACAUGAUGAUGCCUGAAGAGCCUUGGUUUUUUG [A5U C12U G71U],-0.82
4,GACCUAUCUGCCCUCAGAGCUCGAGAACAUCUUCGGAUGCCGAGGAGGCAGGCUUCGGUGGCGCGAUAGCGCCAACAUCCUCAACCUCCAAUGCAUCCCACCACAUGAUAAUGCCUGAAGCGCCUUGGUAUUUUG [A5U A41C G77A G110A A121C U130A],-5.22
5,GACCUAUUUGCCCUCAGAGCUCGAGAACAUCUUCGGAUGCAGAGGAGGCAGGCUUCGGUGGCGCGAUAGCGCCAACGUCCUCAACCUCCAAUGCAUCCCAGCACAUGAUGAUGCCUGAAGAGCCUUGGUUUUUUG [A5U C8U C101G],-1.15
6,GACCUAUCUGCACUCAGAGCGCGAGAACAUCUUCGGAUGCAGAGGAGGAAGGCUUCGGUGGCGCGAUAGCGGCAACGUCCUCAACCUCCAAUGCAUCCCACCACAUGAUGAUGCCUGAAGAGCCUUGGUUUUUUG [A5U C12A U21G C49A C72G],-2.35
7,GACCUAUCUGGCCUCAGAGCUCGAGAACAUCUUCGGAUGCAGAGGAGGCAGGCUUCGGUGGCGCGAUAGCGCCAACGUCCUCAACCUCCAGUGCAUCCCACCACAUGAUGAUGCCUGAAGAGCCUUGGUUUUUUG [A5U C11G A91G],-0.601
8,GACCUAUCUGCCCUCAGAGCUCGAGAACAUCUUCGGAUGCUGAGGAGGCAGGCUUCGGUGGCGCGAUAGCGCCAACGUCCUGAACCUCCAAUGCAUCCCACCACAUGAUGAUGCCUGAAAAGCCGUGGUUUUUUG [A5U A41U C82G G120A U125G],-2.77
9,GACCUAUCUGCCCUCAGAGCUCGAGAACAUCUUCGGAUGCAGGGGAGACAGGCUUCGGUGGUGCGAUAGCGCCAACGUCCUCAACCUCCAAUGCAUCCCACCUCAUGAUUAUGCCUGAAGAGCCUUGGUUUUUUG [A5U A43G G48A C62U A103U G110U],-6.17
10,GACCUAUCUGCCCUCAGAGCUCGAGAACAUCUUCGGAUGCAGGGGAGGCAGGCUUCGGUGGCGCGAUAGCGCCAACGUCCUCAACCUCCAAUGCAUCCCACCACAUGAUGAUGCCUGAAGAGCAUUGGUUUUUUG [A5U A43G C124A],-0.815
11,GACCUAUCUGCCCUCAGAGCUCGAGAACAUCUUCGGAUGCAGAGGAGGCAGGCUUCGGUGGCGCGAUAGCGCCAACGUCCUCAUCCUCCAAUGCAUUCCACCACAUGAUGAUGCCUGAAGAGCCUUGGUUUUUUG [A5U A84U C97U],-1.7
12,GACCUAUGUGCCCUCAGAGCUCGAGAACAUCUUCGGAUGCAGAGGAGGCAGGCUUCGGUGGCGCGAUAGCGCCAACGUCCUCAACCUUCAAUGCAUUCCACCACAUGAUGAUCCCUGAAGAGCCUUGGUUUUUUG [A5U C8G C88U C97U G113C],-1.99
13,GACCUAUCUGCCCUCAGAGCUCGAGAACAUCUUCGGAUGCAGAGGUGGCAGGCUUCGGUGGCGCGAUAGCCCCAACGUCCACAACCUCCAAUGCAUCCCACCACAUGAUGAUGCCUGAAGAGCCUUGGUUUUUUG [A5U A46U G71C U81A],-4.5
14,GACCUAUCUGCCCUCAGAGCUCGAGAACAUCUUCGGAUGCAGAGGUGGCAGGCUUCGGCGGCGCGAUAGCGCCAACGUCCUCAACCUCCUAUGCAUCCCACCACAUGAUGAUGCCUGAAGAGACUUGGUUUUUUG [A5U A46U U59C A90U C123A],-2.16
15,GACCUAUCUGCCCUCAGAGCUCGAGAACAUCUUCGGAUGCAGAGGAGGCAGGCUUCGGUGGCGCGAUAGCGCCCACGUCCUCAACCUCCAAUGCAUCCCACCACAUGAUGAUGCCUGAAGAACCUUGGUUUUUUG [A5U A74C G122A],-1.42
16,GACCUAUCUGCCCUCAGAGCUCGAGAACAUCUUCGGAUGCAGAGGUGGCAGGCUUCGGUGGCGCGAUAGCGCCAACGUCCACAACCUCCAAUGCAUCCCACCACAUGAUGAUGCCUGAAGAGCCUUGGUUUUUUG [A5U A46U U81A],-2.98
17,GACCUAUUUGCCCUCAGAGCUCGAGAACAUCUUCGGAUGCAGAGGGGGCAGGCUUCGGUUGCGCGUUAGCGCCAACGUCCUCAACCUCCAAUGCAUCCCACCACAUGAUGAUGCCUGAAGAGCCUUGGUUUUUUG [A5U C8U A46G G60U A66U],-1.11
18,GACCUAUCUGACCUCAGAGCUCGAGAACAUCUUCGGAUGCAGAGGAGGCAGGCUUCGGUGGCACGAUAGCGCCAACGUCCUCAACCUCCAAUUCAUCCCACCACAUGAUGAUGCCUGAAGAGCCUUGGUUUUUUG [A5U C11A G63A G93U],-2.91
19,GACCUAUUUGCCCUCAGAGCUCGAGAACAUCUUCGGAUGCAGAGGAGGCAGGCUUCGGUGGCGCGAUAGCGCCAACGUCCUCAACCUCCAAUACAUCCCACCACGUGAUGAUGCCUGAAGAGCCUUGGUUUUUUG [A5U C8U G93A A105G],-2.84
20,GACCUAUGUGCCCUCAGAACUCGAGAACAUCUUCGGAUGCAGUGGAGGCAGGCAUCGGUGGCGCGAUAGGGCCAACGUCCUCAACCUCCAAUGCAUCCCACCACAUGAUGAUGCCUGAAGAGCCUUGGUUUUUUG [A5U C8G G19A A43U U54A C70G],-4.96
21,GACCUAUCUGCCCUCAGAGCUCGAGAACAUCUUCGGAUGCAGAGGAGGCAGGCUUCGGUGGCGCGAUAGCGCCAACGUCCUCAACCUCCGAUGCAUCCCACCACAUGAUGAUGCCUGAAGAGUCUUGGUUUUUUG [A5U A90G C123U],0.65
